From article PMC7698151, “Evidence for Pentapeptide-Dependent and Independent CheB Methylesterases” (International Journal of Molecular Sciences, 2020)

Target: T1, […] pentapeptide of the McpB (Aer2) chemoreceptor (Pseudomonas aeruginosa PAO1)
T1 construct: also called GWEEF; McpB pentapeptide; source: synthetic peptide (Biomedal S.L., Seville, Spain)
Assay: ITC
Conditions: both partners purified

B1: P. aeruginosa PAO1 CheB2 (PA0173) (enzyme)
chain: MPISVLVVDDSALIRSLLKEIIQADPELRLVGCAPDAFVARDLIKQHAPDVISLDVEMPRMDGLTFLDKLMKARPTPVLMISSLTERGSEATLRALELGAVDFIAKPRLGIAEGMQAYAEEIRAKLKTVARARLRRRAADAPAPPESAAPLLSTEKIIALGASTGGTEALKEVLLGLPAHSPGVVITQHMPPGFTRSFAERLDRLTRLSVSEARDGDRILPGHALVAPGDHHMEVQRSGANYVVRLNRQAQVNGHRPAVDVMFESLARCAGRNLLAGLLTGMGKDGARGLLAIRQAGGYTLAQDEATCVVYGMPREAVELGAAEDVLPLERIAAALLQQAARRGSGNRL
notes: source: E. coli BL21(DE3), purified (HisTrap HP)
- Kd: 93 ± 15 µM
